Data: patent US20240209044

What was measured:
[1] = system: ZAP, zeta activating peptide, the PKCzeta uORF-encoded peptide
[2] = system: T1, ZIP, zeta inhibitory peptide, the pseudo-substrate peptide of the PKCzeta regulatory domain
T1 sequence: SIYRRGARRWRKL

Substance | phosphorylation of MBP by PKC isoforms (32P-γATP in vitro kinase assay) [1] | kinase activity (phosphorylation of MBP, 32P-γ-ATP in vitro kinase assay, dose series of peptide) [1] | kinase activity (phosphorylation of MBP, 32P-γ-ATP in vitro kinase assay, dose series of peptide) [2]
PKCdelta, HA-tagged, immunoprecipitated from HEK293T lysate | enhanced the phosphorylation of PKC isoforms of the novel PKC sub-family of PKCzeta, PKCdelta and PKCepsilon | – | –
PKCgamma, HA-tagged, immunoprecipitated from HEK293T lysate | the peptide had no effect on the phosphorylation of MBP by the PKC isoforms PKCeta (PKCη), PKCtheta (PKCθ), PKCgamma (PKCγ), and PKCalpha (PKCα) | – | –
PKMzeta, truncated version of PKCzeta containing only the kinase domain | – | the ZAP peptide activates the kinase activity of both PKCzeta and PKMzeta | the known PS ZIP peptide inhibits their activity
